Columns and labels:
Assay in all cases: EMSA
[1] = molecular target: McbR R89A/E93A/R139A (Escherichia coli, UniProt P76114 1-221, R89A;E93A;R139A)
[2] = molecular target: McbR E93S/R139F (Escherichia coli, UniProt P76114 1-221, E93S;R139F)
[3] = molecular target: McbR WT (Escherichia coli, UniProt P76114 1-221)

Measured: binding result

B1: PyciGECO (dsDNA)
DNA 1: AATTGTTAATATATCCAGAATGTTCCTCAAAATATATTTTCCCTCTAT
DNA 2: ATAGAGGGAAAATATATTTTGAGGAACATTCTGGATATATTAACAATT
binds: all assays above

Reference: paper PMC4245980
